Test [1] addresses T1, phage clone 1 peptide (phage-displayed).
T1 chain: GHIPTCLTPMCR
Kind of test: ELISA.

For test [2], the target named is T2, USPIO-LRPep2 (not fully specified (N-terminus, bridges); cysteine pairing not given here; also: grafted to USPIO nanoparticle).
T2 chain: HPWCCGLRLDLR
Kind of test: ELISA. For orientation: In an ELISA, binding on a coated surface is turned into a signal by an enzyme label.

Ends that are not written are not given here.

B1: LDLR 22-788 (protein)
chain: not shown
The Kd is the constant that tells how readily two partners part at equilibrium. Lower therefore signals higher affinity. For the molecule B1, the figures for the Kd in test [1] and in test [2] were 0.136 nM and 72.5 nM, respectively.

The values above are taken from article PMC7407834 (2020).
